Assay results taken from publication PMC3942355, “Unraveling Regulation of the Small Heat Shock Proteins by the Heat Shock Factor HvHsfB2c in Barley: Its Implications in Drought Stress Response and Seed Development”.

Biological target: HvHsfB2c (Hordeum vulgare (barley) cv. Golden …, UniProt F4ZC69 1-362)
Test: EMSA; 100 ng poly(dI-dC); EMSA as described previously (ref 24), with 100 ng poly(dI-dC); buffer, salt, pH and temperature not given
Settings: protein: ivt; chain copies: 3; 5' overhang 4 nt (TCGA) on both strands, 40 bp duplex

HvHsfB2c, sequence (F4ZC69 entry or part of it): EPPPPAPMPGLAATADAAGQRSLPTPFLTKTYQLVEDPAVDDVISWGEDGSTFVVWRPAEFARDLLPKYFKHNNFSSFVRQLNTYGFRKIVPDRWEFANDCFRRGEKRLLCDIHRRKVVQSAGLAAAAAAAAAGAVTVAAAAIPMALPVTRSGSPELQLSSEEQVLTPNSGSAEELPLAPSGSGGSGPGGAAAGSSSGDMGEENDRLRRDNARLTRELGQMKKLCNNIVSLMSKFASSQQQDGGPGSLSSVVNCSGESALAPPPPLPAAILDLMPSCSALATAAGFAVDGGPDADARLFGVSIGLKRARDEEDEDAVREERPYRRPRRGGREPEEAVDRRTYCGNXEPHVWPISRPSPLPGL

B1: HSE-box fragment of HvsHsp17.5-CI promoter (HSE-1/HSE-2) (dsDNA)
DNA 1: TCGAACAACCCAAAATCCAAAAAATTCCACAACCCCAAAAAGGC
DNA 2: TCGAGCCTTTTTGGGGTTGTGGAATTTTTTGGATTTTGGGTTGT
binding result: binds
